Assay: soluble on expression in E. coli; label from the status in PepcDB or PDB records

| Sequence | soluble on expression in E. coli |
| --- | --- |
| AAEGERAEPLRPSQSGARPCRAVGNMHFSIPETESRSGDSGGSAYVAYNIHVNGVLHCRVRYSQLLGLHEQLRKEYGANVLPAFPPKKLFSLTPAEVEQRREQLEKYMQAVRQDPLLGSSETFNSFLRRAQQETQQVPTEEVSLEVLLSNGQKVLVNVLTSDQTEDVLEAVAAKLDLPDDLIGYFSLFLVREKEDGAFSFVRKLQEFELPYVSVTSLRSQEYKIVLRKSYWDSAYDDDVMENRVGLNLLYAQTVSDIERGWILVTKEQHRQLKSLQEKVSKKEFLRLAQTLRHYGYLRFDACVADFPEKDCPVVVSAGNSELSLQLRLPGQQLREGSFRVTRMRCWRVTSSVPLPSGSTSSPGRGRGEVRLELAFEYLMSKDRLQWVTITSPQAIMMSICLQSMVDELMVKKSGGSIRKMLRRRVGGTLRRSDSQQAVKSPPLLESPDATRESMVKLSSKLSAVSLRGIGSPSTDASASDVHGNFAFEGIGDEDL | soluble |
| ADPDVLTEVPAALKRLAKYVIRGFYGIEHALALDILIRNSCVKEEDMLELLKFDRKQLRSVLNNLKGDKFIKCRMRVETAADGKTTRHNYYFINYRTLVNVVKYKLDHMRRRIETDERDSTNRASFKCPVCSSTFTDLEANQLFDPMTGTFRCTFCHTEVEEDESAMPKKDARTLLARFNEQIEPIYALLRETEDVNLAYEILEPEPTEIPALKQSKDHAATTAGAASLAGGHHREAWATKGPSYEDLYTQNVVINMDDQEDLHRASLEGKSAKERPIWLRESTVQGAYGSEDMKEGGIDMDAFQEREEGHAGPDDNEEVMRALLIHEKKTSSAMAGSVGAAAPVTAANGDDSESETSESDDDSPPRPAAVAVHKREEDEEEDDEFEEVADDPIVMVAGRPFSYSEVSQRPELVAQMTPEEKEAYIAMGQRMFEDLFE | not soluble |
| AEFFPEIPKVQFEGKESTNPLAFKFYDPEEIIDGKPLKDHLKFSVAFWHTFVNEGRDPFGDPTADRPWNRYTDPMDKAFARVDALFEFCEKLNIEYFCFHDRDIAPEGKTLRETNKILDKVVERIKERMKDSNVKLLWGTANLFSHPRYMHGAATTCSADVFAYAAAQVKKALEITKELGGEGYVFWGGREGYETLLNTDLGFELENLARFLRMAVDYAKRIGFTGQFLIEPKPKEPTKHQYDFDVATAYAFLKSHGLDEYFKFNIEANHATLAGHTFQHELRMARILGKLGSIDANQGDLLLGWDTDQFPTNVYDTTLAMYEVIKAGGFTKGGLNFDAKVRRASYKVEDLFIGHIAGMDTFALGFKVAYKLVKDGVLDKFIEEKYRSFREGIGRDIVEGKVDFEKLEEYIIDKETIELPSGKQEYLESLINSYIVKTILELR | soluble |
| AFNNNPSSVGAYSSGTYRNLAQEMGKTNIQQKVNSTFDNMFGYNNTQQLYYPYTENGVYKAHYIKAINPDEGDDIRTEGQSWGMTAAVMLNKQEEFDNLWRFAKAYQKNPDNHPDAKKQGVYAWKLKLNQNGFVYKVDEGPAPAGEEYFAFALLNASARWGNSGEFNYYNDAITMLNTIKNKLMENQIIRFSPYIDNLTDPSYHIPAFYDYFANNVTNQADKNYWRQVATKSRTLLKNHFTKVSGSPHWNLPTFLSRLDGSPVIGYIFNGQANPGQWYEFDAWRVIMNVGLDAHLMGAQAWHKSAVNKALGFLSYAKTNNSKNCYEQVYSYGGAQNRGCAGEGQKAANAVALLASTNAGQANEFFNEFWSLSQPTGDYRYYNGSLYMLAMLHVSGNFKFYNNTFN | soluble |
| AFVVTDNCIKCKYTDCVEVCPVDCFYEGPNFLVIHPDECIDDALCEPECPAQAIFSEDEVPEDMQEFIQLNAELAEVWPNITEKKDPLPDAEDWDGVKGKLQHLER | soluble |
| AGTYNYGEALQKSIMFYEFQRSGDLPADKRDNWRDDSGMKDGSDVGVDLTGGWYDAGDHVKFNLPMSYTSAMLAWSLYEDKDAYDKSGQTKYIMDGIKWANDYFIKCNPTPGVYYYQVGDGGKDHSWWGPAEVMQMERPSFKVDASKPGSAVCASTAASLASAAVVFKSSDPTYAEKCISHAKNLFDMADKAKSDAGYTAASGYYSSSSFYDDLSWAAVWLYLATNDSTYLDKAESYVPNWGKEQQTDIIAYKWGQCWDDVHYGAELLLAKLTNKQLYKDSIEMNLDFWTTGVNGTRVSYTPKGLAWLFQWGSLRHATTQAFLAGVYAEWEGCTPSKVSVYKDFLKSQIDYALGSTGRSFVVGYGVNPPQHPHHRTAHGSWTDQMTSPTYHRHTIYGALVGGPDNADGYTDEINNYVNNEIACDYNAGFTGALAKMYKHSGGDPIPNFKAIEKITNDEVIIKAGLNSTGPNYTEIKAVVYNQTGWPARVTDKISFKYFMDLSEIVAAGIDPLSLVTSSNYSEGKNTKVSGVLPWDVSNNVYYVNVDLTGENIYPGGQSACRREVQFRIAAPQGTTYWNPKNDFSYDGLPTTSTVNTVTNIPVYDNGVKVFGNEP | soluble |
| AHHHHHHGSFFLKTKIIEGRGSLEYLQKEAIGFERALILASSSMKRLGFLKEAEDYLREGGVEVISIAGLPPEPTKDVVDEFLPKVREFSPEILIAIGGGSVIDMAKALKVFYDVPGISFEEVAIKSRFSKPRPVPKLKTPLIAIPSTSGAGSEVSAASVIKVGDVKYTIVTPEIAPEVAILDPRLPEGMPPEVARNSGMDVLVHAIEAYVSKASSPFTDAMAVKAAKAVLEHLEESIRGDKNAREKIHYAATMAGIAFLNARLGLVHAMSHKAAWIGPHGLVNAILLPYVMEYNMARRREKYDALARELGFDNAEELLEEIKALNERLGIGPISSYVSEEEFLAKLDEMVERAYEDPLVNFNPVEPRKEDIRRIYERAFYGD | soluble |
| AHHHHHHGSKARIIYRASFDAAHAVKIEEWEELHGHTFSLEVVVEGEIKKGYVMDFLKLKKVVDGVVKELDHRNLNKIMDNPTTENIALWISERIRKNLPGDVKLKRLSLWEGNEFGVELEW | soluble |
| AHHHHHHGSKGILPYVIFRSKKGTFALDAYLALRVEKVERIATLIRKAEVVKRAFDIPPNADLTLEELSEFLESSMEKIRKNAGESFDRRLKKIRRWNLARLFGIPTGHTRHIAEDEHLSREHRESLLALSILENVCRGGIEPIGYGVVDVEVKEGKVYINGKLDPVYTELIKIDMKAALALLEILSE | not soluble |
| AHHHHHHGSKVEKYAIIFGKNPELGLYELKAFSKRFKLGVRILEIRFYGPNKSFAIIQAKEEIEKKFKWLGGALKLVRIVGEGLDTIENLEYSKLFTVSLYGKEDWKAWRKLGSQVKAVFKRKDSSKFFKPANVYSMPSELILKGFPEVKDVVFLFVDKDRVLVGETIRITNPFELKKLDVERPIVRPTLSIPPRLARIMINLSEVRKGNVLDPFCGTGTILVELLLQGLIAYGSDISQERINDARKNIEWIRKEFRIKQNASLRVCDVRRLKKCFRTRFDAIITEPYMGRPLKTKPTREEAIKIAKQLDRLYYQAFESFSDVLKRNAKVVFVFPAFNLAEGGVYRRNRPWLEELGFKVEYSILDIDEKHRIGRDIYVIRY | soluble |
| AHHHHHHGSLVVKDLNVEYDNVKVLKGISFALNSGEKAIILGTNGAGKTTLLKSLLGLIPIKSGKIQICGKPYEKVVGEKKVSTNLESVYKLVYSIKVSELIDLYCDLKEIPSQQILNFIKEMKLEHILEKKFYNLSSGEKKCLTNLLAFFTDSKLILLDEPFEGLDPWRTNKTVEILNSLKSSIIMTTHRLDILSKFSTFKVYFLFNGHLYGPIRSASDLVNCYVTFSDIEEGESDIVLRIQGDKKNVILTRRPIGQKISDYASIDEIYRVMLE | not soluble |
| AHHHHHHGSRPKVGVLLKMKREALEELEKYAEVEVIPYPSEEELKNKIHEFDGIIVSPVTKITKDVLEKAERLKVISCHSAGYDHIDVEEATRKGIYVTKVSGLLSEAVAEFAVGLLINLMRKIHYADKLIRRGEWESHVKIWTGFKGIESLYGKKVGILGMGAIGKAIARRLIPFGVELYYWSRHRKVDVESELHATYMDIDELLEKSDIVILALPLTKDTYHIINEERVKKLEGKYLVNIGRGALVDERAITEAIKQGKLKGYATDVFENEPVREHELFKYEWETVLTPHYAGLAVEAQEDVGFRAVENLISIFRGIVPEDLVNKEVLKIRPIESVKML | not soluble |
| AHHHHHHGSSAKLERIVEEISVAFVGHEDVVRKVLSAALANGNVLFEDNPGLGKTLLAKAFAKVLGLEYRRVQFTPDLLPSDILGTKVWRPEKGTFEIVKGPIFTNVLLADEINRAPPKTQSALLEAMEERQVTIEGETFVLERPFFVIATQNPLEFEGTYPLPEAQLDRFLVRMSIGYPKNESEEVEILKARLRWGKDDPTTDLKPAITKSEFLKMQEDVERNVKIHEDILKYIVRIVRTIREDERVEAGPSPRGGLALMKLAKANAYVEGRDYVIPDDVKEFAIEALAHRIFLKPEYSLEKGIEIEIVREALESVPVPKDLKY | not soluble |
| AHHHHHHGSSMELFEVHEGKAKVLVPKAKTIYDSPVFYNPRMAPNRDVVVLLLNVLKPKIVLDALSATGIRGIRFALETPAEEIWMNDINELAYELMKKNVLLNFKGTLKENAKRAIFEGEKTIVINNDDANRLMAEKHRYFHFIDLDPFGSPMEFLDTALRSVKRKGILGVTATDGAPLCGAHPKACLRKYLAVPLRGELCHEVGTRILVGVIARYAAKYDLGMEVLLAYYKDHYFRAFVKLKDGAKKGDETLENLGYVYFDEKTGRFEVEKSFLSTRPNAYGPLWLGPLKNEKVVGEMLELLVSGFEVANYREVLKLLHMLHEELDIPLFYDTHALGKRLKIEPKKLGEIIKELKSMGYEATRTHFSPTGIKTNAPYEVFVEVMRKN | soluble |
| AHHHHHHGSTHIFPEINSISSLLLLYNGRVLANIHDRTIKKVIGFEAIFRDRVIRNDIKMLIELIRKGDEPLEIRGITIEDYAMNLIKGMMKFARPEE | not soluble |
| AHHHHHHGSVKFCPKCGSIMIPDRRRGVFVCRKCGYEEPINPEDTKAYRRTEEVKHRPDEGVVVIEQEVSTLPTAKVTCPKCGHNEAWWWELQTRAGDEPSTIFYKCKKCGYVWRSYE | soluble |
| AHQYGVKSYIGIPRSYSHDRTDFMQSEQAEILYYDGKYEETVEFIRDFSKDNGLYDASPGSANSSIDKMMYATIAFEIYEALLTVPSYVIVPVGNGTTLAGIYHGFRRMYDEGVIDHLPRMVGVSTSGGNPIVDSWRHGYSRVVDLNPEEIRETSINEPLVSYRSFDGQDALSAIRETHGRAMYVSDEEMVYYSNLIYSAEGLNPLPASASAVAAIGHLKVKQDETVVSVITGRQI | not soluble |
| AIAAEPIELLCWGGDWDLPSVQTDSLTVLAYAKFAGAELTVKFVDWTWRTITASVPQIHYEGTTVTEPTQILNFLRKQRFNADFELTAKQGADTMAYIALLEEKLRPALLHTFWVDAENYANLTRPWFTSHSPFPLNFFVPGRQASLALSRILLTKAESPLLNITEVEGKIYSEAKECLNLLSHRLGNFNFFFGDTPTSLDAFVFGHIAPLIKAPLPSGQLQKHLNQLDNLCQFCNTILKNYFTDATAEKRMDCSPTVAHDFVDANLQKLTQLVNKESNLIEKMDDNLRSSPQHRPHRHEAKPSAPASDRNSTPA | soluble |
| AIAAIAEKAKGKEWTSTEKSREEDQQASNQPNSIALPGTSAKRTKEKMSVKGSKVLCPKKKAEHTDNPRPQKKIPIPPLPSKLPPVNLIHRDILRAWCQQLKLSSKGQKLDAYKRLCAFAYPNQKDFPSTAKEAKIRKSLQKKLKVEKGETSLQSSETHPPEVALPPVGEPPALENSTALLEGVNTVVVTTSAPEALLASWARISARARTPEAVESPQEASGVRWCVVHGKSLPADTDGWVHLQFHAGQAWVPEKQEGRVSALFLLPASNFPPPHLEDNMLCPKCVHRNKVLIKSLQWE | soluble |
| AIACGDCVEKEYPNRGTTCLENGSFLLNFAGCAVCSKRDFMLITNRSLKEEDGEEIVTYDRIYHAVSVVWQS | soluble |

— the DeepSol protein solubility set
